The values below come from patent publication US6051373, “Methods for screening for inhibitors of the transcription-enhancing activity of the X protein of hepatitis B virus” (Scriptgen Pharmaceuticals, Inc.).

One series addresses T1, ATF-2 (GST fusion) (UniProt P15336 P15336:144-505).
T1 sequence: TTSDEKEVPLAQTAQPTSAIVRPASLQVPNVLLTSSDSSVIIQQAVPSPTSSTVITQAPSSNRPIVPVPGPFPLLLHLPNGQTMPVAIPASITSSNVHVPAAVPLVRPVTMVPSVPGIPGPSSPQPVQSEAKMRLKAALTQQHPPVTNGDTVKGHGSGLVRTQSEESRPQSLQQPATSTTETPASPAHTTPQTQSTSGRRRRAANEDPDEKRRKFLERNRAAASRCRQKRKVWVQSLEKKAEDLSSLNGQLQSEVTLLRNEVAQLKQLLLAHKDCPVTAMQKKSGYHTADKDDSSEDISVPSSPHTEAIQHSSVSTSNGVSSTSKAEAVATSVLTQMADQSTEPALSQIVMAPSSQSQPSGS
Briefly: EMSA; low binding without pX, greatly increased by pX. Conditions: tags: GST (pGEX-2T); chain copies: 2; label: 32P.

The target in the next series is CREB (GST fusion) (UniProt P16220-1 P16220-1:23-341). Briefly: EMSA; low binding without pX, greatly increased by 100 ng pX. The settings on record: tags: GST (pGEX-2T); chain copies: 2; label: 32P.
Sequence of CREB (GST fusion) (P16220 other isoform, or with tags, fused parts or gaps): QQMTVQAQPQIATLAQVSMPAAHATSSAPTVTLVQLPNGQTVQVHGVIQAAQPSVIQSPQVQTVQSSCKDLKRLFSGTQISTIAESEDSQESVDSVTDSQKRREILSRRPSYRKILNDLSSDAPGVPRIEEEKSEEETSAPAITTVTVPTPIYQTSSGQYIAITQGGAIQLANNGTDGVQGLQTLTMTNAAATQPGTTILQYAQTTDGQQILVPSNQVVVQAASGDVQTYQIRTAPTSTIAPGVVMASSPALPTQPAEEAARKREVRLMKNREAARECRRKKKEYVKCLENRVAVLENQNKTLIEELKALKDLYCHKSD
The target in another series is pX (Hepatitis B virus, UniProt P03165 P03165:1-154). Briefly: EMSA; no detectable interaction of pX with DNA without transcription factor. Conditions: tags: His (pRSET-C); label: 32P. A general note: In EMSA bound probe runs differently from free probe, usually more slowly.
Sequence of pX (P03165 whole entry, the tested form may be a part, one chain of several): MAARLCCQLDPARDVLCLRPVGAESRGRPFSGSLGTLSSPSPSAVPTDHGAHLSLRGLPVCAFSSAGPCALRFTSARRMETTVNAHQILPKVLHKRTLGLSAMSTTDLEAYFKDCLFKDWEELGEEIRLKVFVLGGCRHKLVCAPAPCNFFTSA
The target in a further series is T2, ATF-1 (GST fusion) (UniProt P18846 P18846:57-271).
T2 sequence: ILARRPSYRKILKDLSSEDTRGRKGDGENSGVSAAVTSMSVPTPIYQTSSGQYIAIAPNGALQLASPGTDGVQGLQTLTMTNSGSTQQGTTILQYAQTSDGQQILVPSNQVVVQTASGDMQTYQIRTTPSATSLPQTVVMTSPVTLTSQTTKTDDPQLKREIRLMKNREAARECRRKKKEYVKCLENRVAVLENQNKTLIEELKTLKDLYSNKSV
Briefly: EMSA; low binding without pX, greatly increased by pX; TFIIB or E. coli extract no effect. Conditions: tags: GST (pGEX-2T); chain copies: 2; label: 32P.

Another series addresses GCN4 minimal bZIP (Saccharomyces cerevisiae, UniProt P03069 P03069:228-281). Briefly: EMSA; enhanced by pX. The settings on record: protein: synthetic; tags: synthetic peptide per text; chain copies: 2; label: 32P.
A further series addresses ZTA minimal bZIP (Epstein-Barr virus, UniProt P03206 P03206:175-229). Briefly: EMSA; stimulated by pX. Conditions: chain copies: 2; label: 32P.
Series [1] deals with T3, BR-CC (GCN4 basic region with idealized leucine zipper) (Saccharomyces cerevisiae).
T3 chain: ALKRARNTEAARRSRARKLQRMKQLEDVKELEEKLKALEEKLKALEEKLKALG
Briefly: EMSA; stimulated by pX. The settings on record: protein: synthetic; tags: synthetic peptide; chain copies: 2; label: 32P.

Sequence of ZTA minimal bZIP (P03206 175-229, one chain of several): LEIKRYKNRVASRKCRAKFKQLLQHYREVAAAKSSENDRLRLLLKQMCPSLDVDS
Sequence of GCN4 minimal bZIP (P03069 228-281, one chain of several): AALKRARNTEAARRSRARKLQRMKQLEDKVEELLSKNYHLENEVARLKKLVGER

B1: CRE core oligoduplex (dsDNA)
DNA 1: TCCTAAGTGACGTCAGTGGAA
DNA 2: TTCCACTGACGTCACTTAGGA
As to B1, the binding result in the series with ATF-2 (GST fusion) is recorded as “binds”; with CREB (GST fusion) it was “binds”; with pX, “no binding”; with ATF-1 (GST fusion), “binds”.

B2: collagenase TRE oligoduplex (dsDNA)
DNA 1: AGCTTTGACTCATCCCGGA
DNA 2: TCCGGGATGAGTCAAAGCT
On to B2, for which the binding result (with GCN4 minimal bZIP; with ZTA minimal bZIP; in series [1]) was “binds” each time.
